The values that follow come from US20220031813A1, “INHIBITOR OF EXTRACELLULAR TRAP FORMATION IN LEUKOCYTES” (priority 2013, published 2022).

For data set [1], the system named is human neutrophils. The data set is described as follows: Specificity experiment: inhibition of NETs formation by DNA concentration in the culture supernatant. It counts as cell-based. Particulars: n=3, p<0.01, FIG. 10. The procedure:
About 1 hour after the isolation of the neutrophils described in “1. Method of isolating human neutrophils” in Example 2, the neutrophils were pre-treated. On an 8-well microslide (Cat. No. ib 80826 Ibidi (registered trademark)), the neutrophils were seeded in 400 μl of culture DMEM+2% human serum Alb (serum human albumin; Product No. A9080 Sigma+4 mM L-glutamine) at a rate of about 1.0×10^5 cells/well, and stimulated with PMA (final concentration: 25 nM, stock: 10 mM in DMSO, Sigma Prod No. P8139). At thirty minutes before the stimulation, and at every one hour or every two hours after the stimulation, 200 μg/ml of human lactoferrin (stock: 100 mg/ml, 200 μl; Cat. No. SIGL6793, SIGMA) was added to perform inhibition [FIG. 2].
The culture supernatant was recovered and centrifuged at 200×g for 10 minutes, and the supernatant was transferred to a new microscopic centrifuge tube. The DNA amount was measured by use of Picogreen dsDNA assay reagent (P11496 Invitrogen) in accordance with an accompanying protocol. Treatment with human lactoferrin at one hour and two hours after the stimulation was a similar effect to the prior pre-treatment, the DNA concentration in the culture supernatant decreased, resulting in suppression of the release of the DNAs by the NETs [FIG. 2]. […]

For data set [2] the following is noted: bovine proteins; cited from earlier work.
Data set [3] relates to human neutrophils. The data set is described as follows: Rate of NETs formation in PMA-stimulated neutrophils after pre-treatment, counted by confocal microscopy. It counts as cell-based.
Data set [4] deals with human neutrophils. Kind of data set: Scanning electron microscopy of neutrophils stimulated to form NETs. It is filed as cell-based. Particulars: pre-treatment 200 μg/ml, 3 hours after stimulation. The procedure: The observation by a scanning electron microscope was performed as follows. Eosinophil granulocytes were seeded on a glass cover or a glass bottom dish for cell culture in the number of 1×10^6 and pre-treated with 200 μg/ml of human lactoferrin or were not pre-treated before stimulation for NETs. Three hours later, the sample was pre-immobilized with 0.1 M phosphoric acid buffer (pH: 7.4) containing 2% glutaraldehyde at 4° C. for 1 hour. Next, the sample was post-immobilized with 0.1 M phosphoric acid buffer (pH: 7.4) containing 1% osmium tetroxide at 4° C. for 1 hour. After the immobilization, the sample was washed with 60% ethanol, with 70% ethanol, with 80% ethanol and with 95% ethanol while being gently shaken for 5 to 10 minutes, and immersed twice in 100% ethanol for 5 to 10 minutes to be dehydrated. Critical point drying was performed by substitution with isoamyl acetate for 10 to 15 minutes. The sample were covered with a layer of sublimated osmium tetroxide by use of an osmium plasma coating device (OPC80N, Filgen, Inc.) and observed by a scanning electron microscope (JSM-6320F, JEOL, Ltd.). In the case where the neutrophils were not stimulated, the neutrophils were kept spherical and no extracellular fiber was recognized. In the case where the neutrophils were stimulated with PMA, the cells were broken and many fiber components were formed.

Data set [5] relates to human neutrophils. The data set is described as follows: DNA concentration in the culture supernatant (Picogreen) after pre-treatment. It counts as cell-based. Conditions: pre-treatment 2, 20, 200 μg/ml, 3 hours after stimulation; FIG. 1-D.
The subject of data set [6] is human neutrophils. The data set is described as follows: DNA concentration in the culture supernatant, lactoferrin added after PMA stimulation. It is filed as cell-based. Conditions: p<0.001. The procedure:
From heathy volunteer, 15 ml to 20 ml of peripheral blood was sampled for one cycle of experiment with an EDTA-containing syringe (needle: 18 to 22 G). After the blood sampling, 3 ml of mono-poly resolving medium (Cat No. DSBN100, DS Pharma Biomedical Co., Ltd.) contained in 15 ml conical tube, and then 3.5 ml of the whole blood were gently stacked in the lower-layer mono-poly resolving medium. The 15 ml conical tube was centrifuged at room temperature (15 to 30° C.) at 400×g for 20 minutes by a swing-type centrifuge, and then the conical tube was taken out gently. A brown plasma layer in the top layer and a lymphocyte/monocyte layer immediately below the brown plasma layer were removed by an aspirator or the like. A transparent layer below the lymphocyte/monocyte layer was removed as much as possible. A pale pink layer below the transparent layer was taken out by a Pasteur pipette. […]
The culture supernatant was recovered and centrifuged at 200×g for 10 minutes, and the supernatant was transferred to a new microscopic centrifuge tube. The DNA amount was measured by use of Picogreen dsDNA assay reagent (P11496 Invitrogen) in accordance with an accompanying protocol. […]

B1: angiogenin: bovine milk protein, known as a tumor angiogenesis factor, eluted from SP-Sepharose column (protein, UniProt P10152 24-148, looked up)
Angiogenin-1: AQDDYRYIHFLTQHYDAKPKGRNDEYCFNMMKNRRLTRPCKDRNTFIHGNKNDIKAICEDRNGQPYRGDLRISKSEFQITICKHKGGSSRPPCRYGATEDSRVIVVGCENGLPVHFDESFITPRH
Consider B1, for which the “inhibition of the formation of the NETs” value in data set [1] is on record as “Neither lactoperoxidase nor angiogenin inhibited”. Besides, the Isoelectric point in data set [2] was 9.5.

B2: human lactoferrin: human lactoferrin, Cat No. SIGL6793, SIGMA; called human neutrophil-derived lactoferrin (protein, UniProt P02788 20-710, looked up)
Lactotransferrin: GRRRSVQWCAVSQPEATKCFQWQRNMRKVRGPPVSCIKRDSPIQCIQAIAENRADAVTLDGGFIYEAGLAPYKLRPVAAEVYGTERQPRTHYYAVAVVKKGGSFQLNELQGLKSCHTGLRRTAGWNVPIGTLRPFLNWTGPPEPIEAAVARFFSASCVPGADKGQFPNLCRLCAGTGENKCAFSSQEPYFSYSGAFKCLRDGAGDVAFIRESTVFEDLSDEAERDEYELLCPDNTRKPVDKFKDCHLARVPSHAVVARSVNGKEDAIWNLLRQAQEKFGKDKSPKFQLFGSPSGQKDLLFKDSAIGFSRVPPRIDSGLYLGSGYFTAIQNLRKSEEEVAARRARVVWCAVGEQELRKCNQWSGLSEGSVTCSSASTTEDCIALVLKGEADAMSLDGGYVYTAGKCGLVPVLAENYKSQQSSDPDPNCVDRPVEGYLAVAVVRRSDTSLTWNSVKGKKSCHTAVDRTAGWNIPMGLLFNQTGSCKFDEYFSQSCAPGSDPRSNLCALCIGDEQGENKCVPNSNERYYGYTGAFRCLAENAGDVAFVKDVTVLQNTDGNNNEAWAKDLKLADFALLCLDGKRKPVTEARSCHLAMAPNHAVVSRMDKVERLKQVLLHQQAKFGRNGSDCPDKFCLFQSETKNLLFNDNTECLARLHGKTTYEKYLGPQYVAGITNLKKCSTSPLLEACEFLRK
Regarding B2, the “rate of the NETs formed at plateau, compared with stimulation merely with PMA” value is “half” in data set [3] (pre-treatment 2 μg/ml for 30 minutes, then PMA 25 nM) and “half” in data set [3] (pre-treatment 20 μg/ml for 30 minutes, then PMA 25 nM). For the same molecule, the “formation of the NETs at plateau, compared with stimulation merely with PMA” value in data set [3] (pre-treatment 200 μg/ml for 30 minutes, then PMA 25 nM) is recorded as “¼”. Also, the “release of the DNAs to the outside of the cells (SYTOX green images)” value in data set [3] (pre-treatment 200 μg/ml, FIG. 1-C) is “inhibited”. For the same molecule, the “inhibitory effect on the formation of the NETs” value in data set [3] (pre-treatment with 2, 20 or 200 μg/ml, FIG. 1-A, 1-B) is “observed similarly to the bovine lactoferrin”. Moreover, the “fiber components of the NETs by scanning electron microscope” value in data set [4] is on record as “form such fiber components in bundles”. Besides, the “DNA concentration in the culture supernatant” value is reported as “decreased in a concentration-dependent manner” in data set [5], “decreased” in data set [6] (200 μg/ml added one hour after PMA stimulation) and “decreased” in data set [6] (200 μg/ml added two hours after PMA stimulation).
